Test in all cases: high-throughput RNA pulldown from lysate on Ni-NTA beads; HRP: 50 mM Tris pH 8, 150 mM NaCl, 1 mM beta-mercaptoethanol, 50 ug/ml BSA, 3 ug/ml yeast RNA, 0.5% heparin; ITC and FP: Tris pH 8, 200 mM KCl, 5% glycerol; MST: 50 mM Tris pH 8, 200 mM NaCl, 1 mM DTT, BSA, heparin, 0.05% Tween 20
Common to all, as to settings: tags: N-terminal His-eGFP

The target of series [1] is T1, GFP-9S library array, motif 4 ND N98P;D124F (synthetic construct, N98P;D124F).
T1 chain: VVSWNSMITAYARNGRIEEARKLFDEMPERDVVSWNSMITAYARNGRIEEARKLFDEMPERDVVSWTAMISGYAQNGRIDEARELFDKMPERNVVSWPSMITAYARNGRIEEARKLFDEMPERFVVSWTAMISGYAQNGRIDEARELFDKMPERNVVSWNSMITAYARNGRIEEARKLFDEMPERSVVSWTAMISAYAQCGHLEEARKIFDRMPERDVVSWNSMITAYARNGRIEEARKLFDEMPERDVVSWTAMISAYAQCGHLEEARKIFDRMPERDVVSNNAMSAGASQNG

The target in series [2] is T2, GFP-9S library array, motif 4 ND N98D;D124L (synthetic construct, N98D;D124L).
T2 chain: T1 chain with P98D, F124L

For series [3], the target named is T3, GFP-9S library array, motif 4 ND N98S;D124M (synthetic construct, N98S;D124M).
T3 chain: T1 chain with P98S, F124M

The target in series [4] is T4, GFP-9S library array, motif 4 ND N98G;D124W (synthetic construct, N98G;D124W).
T4 chain: T1 chain with P98G, F124W

Series [5] addresses T5, GFP-9S library array, motif 4 ND N98R;D124N (synthetic construct, N98R;D124N).
T5 chain: T1 chain with P98R, F124N

These results are taken from paper PMC8809517, “Cofactor-independent RNA editing by a synthetic S-type PPR protein”.

Where a chain is given by its changes, count along the chain named.

In general, Kd refers to the free concentration of one partner at which half of the binding sites on the other are occupied at equilibrium, for simple one-to-one binding. Low values mean higher affinity, high ones lower affinity. Turning to AUUAAACGUGA (ssRNA) [IR-rpoA-A], the Kd is 245 nM in series [1] (label: 5' IRDye 800CW); 90.5 nM in series [2] (label: 5' IRDye 800CW); 369 nM in series [3] (label: 5' IRDye 800CW); 74.5 nM in series [4] (label: 5' IRDye 800CW); 200 nM in series [5] (label: 5' IRDye 800CW).
As to AUUACACGUGA (ssRNA) [Cy5-rpoA], the equilibrium dissociation constant (Kd) in series [1] (label: 5' Cy5) worked out at 134 nM; in series [2] (label: 5' Cy5), 133 nM; in series [3] (label: 5' Cy5), 120 nM; in series [4] (label: 5' Cy5), 49.7 nM; in series [5] (label: 5' Cy5), 98 nM.
With AUUAGACGUGA (ssRNA) [Cy5-rpoA-G], the Kd in series [1] (label: 5' Cy5) is 125 nM; in series [2] (label: 5' Cy5), 52.3 nM; in series [3] (label: 5' Cy5), 183 nM; in series [4] (label: 5' Cy5), 69.1 nM; in series [5] (label: 5' Cy5) it was 118 nM.
In the case of AUUAUACGUGA (ssRNA) [IR-rpoA-U], the dissociation constant Kd came to 290 nM in series [1] (label: 5' IRDye 800CW); 408 nM in series [2] (label: 5' IRDye 800CW); 160 nM in series [3] (label: 5' IRDye 800CW); 67 nM in series [4] (label: 5' IRDye 800CW); 95.9 nM in series [5] (label: 5' IRDye 800CW).
